Measured values: patent EP4740967A1 (Shanghai Escugen Biotechnology Co., Ltd., dated 2026)

B1: 9D1-LD-89 (antibody, human IgG1, kappa, V domains shown)
VH: QIQLVQSGAEVKKPGASVKISCKASGYSFTDYHMNWVRQAPGKGLEWIGNIDPYYGSPTYNHKFKGRVTLTVDTSTSTAYMELSSLRSEDTAVYYCANYGRGNSFPYWGQGTLVTVSS
VL: DIVMTQSPSSLAVSLGERATINCKSSQSLLNSGNQRNYLTWYQQKPGQPPKLLIYWASTRESGVPDRFSGSGSGTDFTLTISSLQAEDVAVYYCQNDYSFPFTFGQGTKLEIKR
modifications: LD-89 linker-drug (Exatecan) on reduced interchain cysteines (Conjugation Method 1; DAR printed as 1 in Table 1)
B2: 9D1-LD-38 (antibody, human IgG1, kappa, V domains shown)
VH: B1 VH
VL: B1 VL
modifications: LD-38 linker-drug (Exatecan) on reduced interchain cysteine; main conjugation form one LD-38 molecule per light chain; LD-38 linker-drug (Exatecan) on reduced interchain cysteines; main conjugation form three LD-38 molecules per heavy chain (DAR 8 nominal, 7.8 measured)
B3: 9D1-LD-88 (antibody, human IgG1, kappa, V domains shown)
VH: B1 VH
VL: B1 VL
modifications: LD-88 linker-drug (Exatecan) on reduced interchain cysteines (Conjugation Method 1; DAR printed as 1 in Table 1)
B4: 9D1-LD-82 (antibody, human IgG1, kappa, V domains shown)
VH: B1 VH
VL: B1 VL
modifications: LD-82 linker-drug (structure, preparation and DAR not described in the filing)
B5: 9D1-GGFG-Exatecan (antibody, human IgG1, kappa, V domains shown)
VH: B1 VH
VL: B1 VL
modifications: MC-GGFG-Exatecan linker-drug on reduced interchain cysteines (Conjugation Method 1, DAR 8)
B6: 9D1-LD-31-P1 (antibody, human IgG1, kappa, V domains shown)
VH: B1 VH
VL: B1 VL
modifications: LD-31-P1 linker-drug (Exatecan) on reduced interchain cysteines (Conjugation Method 1, DAR 8)
B7: 9D1-LD-31-P2 (antibody, human IgG1, kappa, V domains shown)
VH: B1 VH
VL: B1 VL
modifications: LD-31-P2 linker-drug (Exatecan) on reduced interchain cysteines (Conjugation Method 1, DAR 8)
B8: 9D1-vc-PAB-MMAE (antibody, human IgG1, kappa, V domains shown)
VH: B1 VH
VL: B1 VL
modifications: MC-VC-PAB-MMAE linker-drug on partially reduced interchain cysteines (Conjugation Method 2, DAR 4)
B9: 9D1-LD-72 (antibody, human IgG1, kappa, V domains shown)
VH: B1 VH
VL: B1 VL
modifications: LD-72 linker-drug (Exatecan) on reduced interchain cysteines (Conjugation Method 1, DAR 8)
B10: 9D1-LD-66 (antibody, human IgG1, kappa, V domains shown)
VH: B1 VH
VL: B1 VL
modifications: LD-66 linker-drug (Exatecan) on reduced interchain cysteines (Conjugation Method 1, DAR 8)
B11: 9D1-LD-65 (antibody, human IgG1, kappa, V domains shown)
VH: B1 VH
VL: B1 VL
modifications: LD-65 linker-drug (Exatecan) on reduced interchain cysteines (Conjugation Method 1, DAR 8)
B12: 9D1-LD-57 (antibody, human IgG1, kappa, V domains shown)
VH: B1 VH
VL: B1 VL
modifications: LD-57 linker-drug (MMAE) on partially reduced interchain cysteines (Conjugation Method 2, DAR 4)
B13: 9D1-LD-73 (antibody, human IgG1, kappa, V domains shown)
VH: B1 VH
VL: B1 VL
modifications: LD-73 linker-drug (Exatecan, PEG side chain) on reduced interchain cysteines (Conjugation Method 1, DAR 8)
B14: 9D1-LD-12 (antibody, human IgG1, kappa, V domains shown)
VH: B1 VH
VL: B1 VL
modifications: LD-12 linker-drug (Exatecan) on reduced interchain cysteines (Conjugation Method 1, DAR 8)
B15: 9D1-LD-74 (antibody, human IgG1, kappa, V domains shown)
VH: B1 VH
VL: B1 VL
modifications: LD-74 linker-drug (Exatecan, polysarcosine side chain) on reduced interchain cysteines (Conjugation Method 1, DAR 8)
B16: 9D1-LD-37 (antibody, human IgG1, kappa, V domains shown)
VH: B1 VH
VL: B1 VL
modifications: LD-37 linker-drug (Exatecan) on reduced interchain cysteines (Conjugation Method 1, DAR 8)
B17: 9D1-LD-71 (antibody, human IgG1, kappa, V domains shown)
VH: B1 VH
VL: B1 VL
modifications: LD-71 linker-drug (SN38) on reduced interchain cysteines (Conjugation Method 1, DAR 8)
B18: 9D1-ELC122 (antibody, human IgG1, kappa, V domains shown)
VH: B1 VH
VL: B1 VL
modifications: ELC122 linker-drug (SN38) on reduced interchain cysteines (Conjugation Method 1, DAR 8)

The binders below were run against T1, human Claudin18.2 (human, UniProt P56856 1-261) (assay: cell-based or functional assay).
T1 sequence (looked up): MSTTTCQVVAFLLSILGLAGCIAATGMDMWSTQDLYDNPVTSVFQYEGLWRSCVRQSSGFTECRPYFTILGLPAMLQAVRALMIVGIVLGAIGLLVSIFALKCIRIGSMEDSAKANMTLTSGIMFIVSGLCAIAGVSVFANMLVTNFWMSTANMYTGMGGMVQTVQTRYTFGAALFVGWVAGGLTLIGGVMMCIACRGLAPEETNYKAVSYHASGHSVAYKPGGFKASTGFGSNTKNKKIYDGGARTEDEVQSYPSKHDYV
For B1, the “IC50 of inhibition of proliferation of MC38-hClaudin18.2 cells (AlamarBlue cell viability, 72 h)” value was 0.757 nM. With B2 the “IC50 of inhibition of proliferation of MC38-hClaudin18.2 cells (AlamarBlue cell viability, 72 h)” value was 0.632 nM. In the case of B3, the “IC50 of inhibition of proliferation of MC38-hClaudin18.2 cells (AlamarBlue cell viability, 72 h)” value is reported as 1.46 nM. B4 was tested, and the “IC50 of inhibition of proliferation of MC38-hClaudin18.2 cells (AlamarBlue cell viability, 72 h)” value was 8.01 nM.

Biological target: T1, human Claudin18.2
Test: cell-based or functional assay
Remark: another data set of the same source
In the case of B5, the “IC50 of in vitro cell killing on MC38-hClaudin18.2 cells (AlamarBlue cell viability)” value (shortened to “IC50 … (AlamarBlue cell viability)”) is reported as 11 nM. In the case of B6, the “IC50 … (AlamarBlue cell viability)” value is reported as 4.35 nM. In the case of B2, the “IC50 … (AlamarBlue cell viability)” value is reported as 1.36 nM. In the case of B7, the “IC50 … (AlamarBlue cell viability)” value is reported as 2.91 nM. With B8 the “IC50 … (AlamarBlue cell viability)” value was 0.407 nM. B9 was tested, and the “IC50 … (AlamarBlue cell viability)” value was 1.08 nM. In the case of B10, the “IC50 … (AlamarBlue cell viability)” value is reported as 1.09 nM. For B11, the “IC50 … (AlamarBlue cell viability)” value was 1.61 nM. With B12 the “IC50 … (AlamarBlue cell viability)” value was 0.53 nM. With B13 the “IC50 … (AlamarBlue cell viability)” value was 1.4 nM. With B14 the “IC50 … (AlamarBlue cell viability)” value was 0.799 nM. For B15, the “IC50 … (AlamarBlue cell viability)” value was 2.22 nM. B16 was tested, and the “IC50 … (AlamarBlue cell viability)” value was 0.802 nM.

Biological target: T1, human Claudin18.2
Test: cell-based or functional assay
Remark: another data set of the same source
For B5, the “IC50 of in vitro cell killing on NUGC4-hClaudin18.2 cells (CCK-8 cell viability, 120 h)” value (from here on “IC50 … (CCK-8 cell viability, 120 h)”) was 0.184 nM. For B2, the “IC50 … (CCK-8 cell viability, 120 h)” value was 0.728 nM. B8 was tested, and the “IC50 … (CCK-8 cell viability, 120 h)” value was 0.064 nM. In the case of B9, the “IC50 … (CCK-8 cell viability, 120 h)” value is reported as 0.553 nM. With B10 the “IC50 … (CCK-8 cell viability, 120 h)” value was 0.996 nM. In the case of B11, the “IC50 … (CCK-8 cell viability, 120 h)” value is reported as 0.701 nM. B12 was tested, and the “IC50 … (CCK-8 cell viability, 120 h)” value was 0.053 nM. B13 was tested, and the “IC50 … (CCK-8 cell viability, 120 h)” value was 1.27 nM. In the case of B14, the “IC50 … (CCK-8 cell viability, 120 h)” value is reported as 0.58 nM. For B15, the “IC50 … (CCK-8 cell viability, 120 h)” value was 1.16 nM.

Biological target: T1, human Claudin18.2
Test: cell-based or functional assay
Remark: another data set of the same source
For B17, the “IC50 of in vitro cell killing on HEK293-hClaudin18.2 cells (AlamarBlue cell viability, 72 h)” value was 0.397 nM. B2 was tested, and the “IC50 of in vitro cell killing on HEK293-hClaudin18.2 cells (AlamarBlue cell viability, 72 h)” value was 0.09 nM. For B10, the “IC50 of in vitro cell killing on HEK293-hClaudin18.2 cells (AlamarBlue cell viability, 72 h)” value was 0.996 nM. In the case of B11, the “IC50 of in vitro cell killing on HEK293-hClaudin18.2 cells (AlamarBlue cell viability, 72 h)” value is reported as 0.086 nM. In the case of B18, the “IC50 of in vitro cell killing on HEK293-hClaudin18.2 cells (AlamarBlue cell viability, 72 h)” value is reported as 0.628 nM.
